The text below walks through data of patent US20140017790A1, “CONTROL AGENT FOR CONTROLLING UNDIFFERENTIATED STATE AND USE THEREOF” (RIKEN, priority 2011, published 2014).

Holding throughout (assay type): cell-based
Test [1] has as its system mouse iPS cells. The test can be described thus: flow cytometry analysis of Nanog-GFP positive cell population. As for the experimental part:
In the present example, the above-described DMEM to which the LIF and mouse recombinant CCL2 (MCP-1, #479-JE-010, R&D Systems) had been added was used. In the medium, the final concentration of the LIF was set to 25 units/ml, and the concentration of the recombinant CCL2 was set to 500 ng/ml. The amount of the medium to be added to a 12-well dish was set to 1 ml per well. On the other hand, in a comparative example, the above-described DMEM containing the LIF but not containing the CCL2 was used. The final concentration of the LIF was set to 25 units/ml.
The mouse iPS cells cultured under feeder free conditions were cultured in the medium of the example and the medium of the comparative example, respectively. The mouse iPS cells were seeded in the 12-well dish at a density of 6×10^4 cells/well.
The flow cytometry analysis was carried out in the following manner. After the mouse iPS cells had been cultured in the above described manner, the cells were collected from the wells, and were suspended again in an ES medium containing 25 units/ml of LIF. As the ES medium, a DMEM (containing glucose at a high concentration and containing no sodium pyruvate) containing 15% FBS, 0.1 mmol/l NEAA, and 0.1 mmol/l 2-Mercaptoethanol was used. Then, this cell suspension was applied to a flow cytometer (trade name: BD FACSAria (registered trademark) II, Becton, Dickinson and Company), and analyzed in accordance with the protocol of the flow cytometer. At this time, as a cell population having pluripotency, i.e., undifferentiated cell population, a Nanog-GFP-positive region sorted out based on FITC-A>10^4 was monitored. The raw data was analyzed by a program (FlowJo, ver. 7), and plotted in the form of density plot. The iPS cells were produced from MEF of a modified mouse with a GFP protein being incorporated in the promoter region of the Nanog gene. Thus, when the cells expressed the Nanog gene, it means the cells were Nanog-GFP positive, so that the GFP was produced and this GFP was detected by the FACS. […]
A general note: A flow cytometer gives signals particle by particle.

The test system of test [2] is AKT. The test can be described thus: Western blotting, phosphorylation of AKT in mouse iPS cells. To be noted: CCL2 overexpressed, relative to negative control. As for the experimental part:
The mouse iPS cells transfected with the Ccl2 expression vector were cultured for 24 hours in the same manner as in Example 1. After the culture, the mouse iPS cells were washed with PBS, and then were suspended in 100 μl of a mammalian m-PER lysis buffer. The suspension was passed through a 26-gauge needle for 10 minutes to homogenize the cells. Then, the suspension was centrifuged at 13,000 rpm and 4° C. for 5 minutes, and the supernatant was collected. The protein concentration in the supernatant was measured using a Pierce (registered trademark) BCA Protein assay (trade name, Thermo Scientific). Next, the supernatant was subjected to Western blotting to detect a target protein. Specifically, first, the supernatant (total protein: 10 μg) was applied to a Novex Gel electrophoresis system with 4%-12% Bis-Tris gels, and was blotted on a nitrocellulose membrane. Then, the membrane was incubated with a primary antibody against the target protein. After washing the membrane, the membrane was incubated with a labeled secondary antibody labeled with horseradish peroxidase, and a color-developing reaction was caused using a coloring reagent (trade name: ECL plus, GE Healthcare). Then, luminescence on the membrane was detected using a Fuji LAS-3000 luminescent image analyzer. […]

Test [3] has as its system STAT3. Briefly: Western blotting, phosphorylation of STAT3 in mouse iPS cells. The note with it: CCL2 overexpressed, 24 hours, relative to negative control. As for the experimental part: The mouse iPS cells transfected with the Ccl2 expression vector were cultured for 24 hours in the same manner as in Example 1. After the culture, the mouse iPS cells were washed with PBS, and then were suspended in 100 μl of a mammalian m-PER lysis buffer. The suspension was passed through a 26-gauge needle for 10 minutes to homogenize the cells. Then, the suspension was centrifuged at 13,000 rpm and 4° C. for 5 minutes, and the supernatant was collected. The protein concentration in the supernatant was measured using a Pierce (registered trademark) BCA Protein assay (trade name, Thermo Scientific). Next, the supernatant was subjected to Western blotting to detect a target protein. […] Then, luminescence on the membrane was detected using a Fuji LAS-3000 luminescent image analyzer.
As the primary antibody, an anti-phosphorylated STAT3 antibody (anti-pSTAT3 antibody, commercially available from CST, #9145) was used for the phosphorylated STAT3 (pSTAT3), an anti-STAT3 antibody (CST, #9132) was used for the STAT3 protein, and an anti-GAPDH antibody (Santa Cruz Biotechnology Inc, #25778) was used for GAPDH, which is an expression control. […] Then, the ratio of the phosphorylated STAT3 to the non-phosphorylated STAT3 (pSTAT3/STAT3) was determined. […]

B1: CCL2: mouse recombinant CCL2 (MCP-1, #479-JE-010, R&D Systems); in Examples 1, 3, 4(1), 5 mouse CCL2 (SEQ ID NO: 3) overexpressed from Ccl2 expression vector (protein, listed as Mus musculus)
chain: MQVPVMLLGLLFTVAGWSIHVLAQPDAVNAPLTCCYSFTSKMIPMSRLESYKRITSSRCPKEAVVFVTKLKREVCADPKKEWVQTYIKNLDRNQMRSEPTTLFKTASALRSSAPLNVKLTRKSEANASTTFSTTTSSTSVGVTSVTVN
Regarding B1, the “proportion of the Nanog-GFP positive mouse iPS cells” value is reported as “increased” in test [1] (CCL2 500 ng/ml, LIF 25, 50, 100, 500 and 1000 units/ml, versus no CCL2); 67.3% in test [1] (recombinant CCL2 500 ng/ml + LIF 25 units/ml, feeder free, 24 hours, comparative medium (LIF only) 37.6%). The “number of undifferentiated cells having pluripotency (Nanog-GFP positive)” value in test [1] (recombinant CCL2 500 ng/ml added to PI3K inhibitor 5 ng/ml + LIF 25 units/ml) is listed as “further increase”. Further, the “phosphorylation of AKT (pAKT/AKT)” value in test [2] was “not promoted”. Besides, in test [3], the “ratio of phosphorylated STAT3 to non-phosphorylated STAT3 (pSTAT3/STAT3)” value was “increased”.
